Measured values from article PMC7486400, “Allosteric coupling between α-rings of the 20S proteasome” (Nature Communications, 2020).
Where “and” joins values, the source holds several entries; their conditions need not be identical. Equal entries are not always repeated.

B1: Thermoplasma acidophilium 20S proteasome α-subunit, wild type, full-length (natural protein, UniProt P25156 1-233, looked up)
chain: MQQGQMAYDRAITVFSPDGRLFQVEYAREAVKKGSTALGMKFANGVLLISDKKVRSRLIEQNSIEKIQLIDDYVAAVTSGLVADARVLVDFARISAQQEKVTYGSLVNIENLVKRVADQMQQYTQYGGVRPYGVSLIFAGIDQIGPRLFDCDPAGTINEYKATAIGSGKDAVVSFLEREYKENLPEKEAVTLGIKALKSSLEEGEELKAPEIASITVGNKYRIYDQEEVKKFL
notes: 20S proteasome α-subunit of Thermoplasma acidophilum, full-length; For the asymmetric CP the wild-type ring was co-expressed from α-His and α-MBP (both C-terminal, TEV site before the tag); All tags were removed after final purification, so the subunit is untagged in the EM samples; All these forms are kept as one molecule here; also called αWT; αwt
B2: Thermoplasma acidophilium 20S proteasome α-subunit R28L (natural protein, UniProt P25156 1-233, looked up)
chain: MQQGQMAYDRAITVFSPDGRLFQVEYALEAVKKGSTALGMKFANGVLLISDKKVRSRLIEQNSIEKIQLIDDYVAAVTSGLVADARVLVDFARISAQQEKVTYGSLVNIENLVKRVADQMQQYTQYGGVRPYGVSLIFAGIDQIGPRLFDCDPAGTINEYKATAIGSGKDAVVSFLEREYKENLPEKEAVTLGIKALKSSLEEGEELKAPEIASITVGNKYRIYDQEEVKKFL
notes: also called proximal α-ring of PAN-αWTββα_(K66A)
B3: Thermoplasma acidophilium 20S proteasome α-subunit K66A (natural protein, UniProt P25156 1-233, looked up)
chain: MQQGQMAYDRAITVFSPDGRLFQVEYAREAVKKGSTALGMKFANGVLLISDKKVRSRLIEQNSIEAIQLIDDYVAAVTSGLVADARVLVDFARISAQQEKVTYGSLVNIENLVKRVADQMQQYTQYGGVRPYGVSLIFAGIDQIGPRLFDCDPAGTINEYKATAIGSGKDAVVSFLEREYKENLPEKEAVTLGIKALKSSLEEGEELKAPEIASITVGNKYRIYDQEEVKKFL
notes: 20S proteasome α-subunit of Thermoplasma acidophilum, full-length, K66A; In the EM samples the K66A ring (distal ring of the asymmetric CP) is untagged; also called α_(K66A); distal α-ring; source: E. coli BL21(DE3), purified (strep-trap column)

Assays:
[1] = molecular target: in vitro assembled symmetric wild-type Thermoplasma acidophilium 20S core particle αWTββαWT (Thermoplasma acidophilium) (UniProt P25156)
[2] = molecular target: in vitro assembled asymmetric Thermoplasma acidophilium 20S core particle αWTββα_(K66A) (Thermoplasma acidophilium) (UniProt P25156)
[3] = molecular target: in vitro assembled symmetric wild-type Thermoplasma acidophilium 20S core particle αWTββαWT (Thermoplasma acidophilium) (UniProt P25156); remark: listed apart in the source
[4] = molecular target: in vitro assembled asymmetric Thermoplasma acidophilium 20S core particle αWTββα_(K66A) (Thermoplasma acidophilium) (UniProt P25156); remark: listed apart in the source
[5] = molecular target: B3; assay: in vitro reconstitution with two-step affinity purification; two types of purified α-subunits and β-subunit mixed 1:2:1 in Tris buffer pH 7.5, 1 h at 37 °C; strep-trap column (α K66A), TEV cleavage of all tags except MBP, then MBP column (wild-type α); conditions: both partners purified
[6] = molecular target: the molecule itself; assay: negative stain EM; α-subunits expressed in E. coli and purified alone; Supplementary Fig. 1c–i (panel c is negative stain EM; the method of the other panels was not shown)
[7] = molecular target: the molecule itself; assay: cryo-EM structure; single-particle cryo-EM of asymmetric CP with one activator bound, with or without substrate (LFP, GFP-ssrA), C7 symmetry applied, about 3 Å; PAN complexes with nucleotide
[8] = molecular target: B1; assay: as above; conditions: both partners purified
[9] = molecular target: B2; assay: as above; conditions: both partners purified

## PA26 (Trypanosoma brucei) with the point mutation V230F (natural protein)
[1]
  Kcat (1/min) of LFP peptidase activity, CP with PA26 (doubly capped): 0.839 s⁻¹
  Vmax (μM/min) of LFP peptidase activity, CP with PA26 (doubly capped): 805 µM/min
[2]
  Kcat (1/min) of LFP peptidase activity, CP with PA26 (singly capped): 0.426 s⁻¹
  Vmax (μM/min) of LFP peptidase activity, CP with PA26 (singly capped): 409 µM/min

## PA26PANc: PA26 (Trypanosoma brucei) with E102A and the last eight C-terminal residues replaced with the last eight C-terminal residues of PAN
[3]
  Kcat (1/min) of LFP peptide degradation, 16 nM CP with 112 nM activator (doubly capped): 0.207 s⁻¹
  Vmax (μM/min) of LFP peptide degradation, 16 nM CP with 112 nM activator (doubly capped): 199 µM/min
[4]
  Kcat (1/min) of LFP peptide degradation, 16 nM CP with 112 nM activator (singly capped): 0.24 s⁻¹
  Vmax (μM/min) of LFP peptide degradation, 16 nM CP with 112 nM activator (singly capped): 230 µM/min

## B1
[5]
  binding result: binds
[6]
  stoichiometry N: 7 and 14

## B2
[7]
  binding result: binds

## B3
[7]
  binding result: binds

B4: Thermoplasma acidophilium 20S proteasome β-subunit, pro-peptide truncated (residues 2–8 removed) (natural protein)
chain: TTTVGITLKDAVIMATERRVTMENFIMHKNGKKLFQIDTYTGMTIAGLVGDAQVLVRYMKAELELYRLQRRVNMPIEAVATLLSNMLNQVKYMPYMVQLLVGGIDTAPHVFSIDAAGGSVEDIYASTGSGSPFVYGVLESQYSEKMTVDEGVDLVIRAISAAKQRDSASGGMIDVAVITRKDGYVQLPTDQIESRIRKLGLIL
notes: 20S proteasome β-subunit of Thermoplasma acidophilum; residues 2–8 truncated to simulate the autoproteolytic removal of the N-terminal pro-peptide; A protease (TEV) site stands before the tag; Tags were removed after final purification of the assembled CP; also called β monomers; source: E. coli BL21(DE3), purified (Ni-NTA)
[5]
  binding result: binds
[8]
  binding result: binds
[9]
  binding result: binds
